# Source: the Human Domainome abundance scans (Beltran et al. 2025)
# ± gives the uncertainty stated by the source.
# B1: SWI/SNF-related matrix-associated actin-dependent regulator of chromatin subfamily B member 1, residues 181 to 248; numbered along this chain, Q12824 (parent)
# chain: SQPEVLVPIRLDMEIDGQKLRDAFTWNMNEKLMTPEMFSEILCDDLDLNPLTFVPAIASAIRQQIESY
# Variants of: B1
# Experiment: abundance fitness (aPCA) (normalised: wild type 0, dead -1); higher = more abundant; growth selection in yeast, the domain comes from the species named
# Conditions: Homo sapiens
row,Variant,abundance fitness
1,A23F,-0.039 ± 0.093
2,D47T,-0.37 ± 0.059
3,L20K,-0.598 ± 0.29
4,L20E,-0.94 ± 0.32
5,I9Q,-0.868 ± 0.21
6,E40K,-0.015 ± 0.055
7,L20N,-0.788 ± 0.45
8,I41A,0.207 ± 0.04
9,E40T,-0.12 ± 0.045
10,E66I,-0.276 ± 0.13
11,I15S,-0.934 ± 0.47
12,L48C,-0.374 ± 0.079
13,L48H,-0.722 ± 0.18
14,M33R,-0.418 ± 0.046
15,I15H,-0.625 ± 0.28
16,D47S,-0.101 ± 0.048
17,R10E,0.065 ± 0.13
18,T52I,-0.417 ± 0.4
19,Y68N,-0.384 ± 0.22
20,E14L,-0.299 ± 0.094
21,I41N,0.167 ± 0.068
22,R21C,0.096 ± 0.066
23,Q18A,-0.311 ± 0.069
24,V7M,-0.646 ± 0.14

row,Variant,abundance fitness
1,R21S,-0.054 ± 0.055
2,L32E,0.207 ± 0.045
3,I41H,0.034 ± 0.061
4,R21D,0.133 ± 0.13
5,S1W,-0.435 ± 0.074
6,V7W,-1 ± 0.18
7,R21N,0.098 ± 0.072
8,N29G,-0.244 ± 0.087
9,L11T,-0.057 ± 0.13
10,N49I,-0.932 ± 0.23
11,I9S,-1.05 ± 0.32
12,E4T,-0.281 ± 0.11
13,Q18L,-0.297 ± 0.16
14,T25L,-0.134 ± 0.046
15,K31V,-0.146 ± 0.061
16,Y68G,-0.661 ± 0.13
17,Q64I,-0.898 ± 0.11
18,I41S,0.174 ± 0.033
19,R21W,-0.368 ± 0.13
20,F24V,-0.331 ± 0.051
21,P3T,0.063 ± 0.067
22,Q64Y,-0.795 ± 0.45
23,D47C,-0.305 ± 0.057
24,P3A,0.02 ± 0.067

row,Variant,abundance fitness
1,P8I,-0.523 ± 0.1
2,R62C,-0.629 ± 0.15
3,T34P,-0.454 ± 0.38
4,L32G,0.061 ± 0.03
5,L32H,0.146 ± 0.053
6,Y68C,-0.643 ± 0.21
7,V7L,-0.322 ± 0.055
8,F24P,-0.866 ± 0.18
9,D22C,0.035 ± 0.096
10,K31S,-0.063 ± 0.065
11,Q64H,-0.741 ± 0.12
12,S1A,-0.151 ± 0.074
13,D44T,-0.467 ± 0.28
14,E14M,-0.065 ± 0.11
15,A60N,-0.28 ± 0.092
16,P3I,-0.245 ± 0.35
17,F38W,-0.235 ± 0.21
18,Q18G,-1.01 ± 0.27
19,E66P,-0.919 ± 0.44
20,A60R,-0.285 ± 0.05
21,Q63R,-0.115 ± 0.049
22,I57A,-0.781 ± 0.13
23,M33P,-0.113 ± 0.15
24,L42E,-0.978 ± 0.11

row,Variant,abundance fitness
1,V7I,-0.049 ± 0.086
2,P3L,0.003 ± 0.064
3,F38Y,-0.509 ± 0.49
4,A23K,0.102 ± 0.083
5,D22H,0.385 ± 0.15
6,V5Q,0.184 ± 0.11
7,I15V,-0.516 ± 0.088
8,T52K,0.189 ± 0.071
9,R21I,0.081 ± 0.094
10,L42M,0.117 ± 0.064
11,L51V,0.042 ± 0.11
12,P50S,-0.389 ± 0.046
13,N27R,-0.684 ± 0.14
14,E40V,-0.215 ± 0.041
15,Y68F,-0.183 ± 0.18
16,P50N,-0.567 ± 0.1
17,N49R,-0.789 ± 0.09
18,N29R,-0.273 ± 0.23
19,A60F,-0.725 ± 0.17
20,V5P,-0.366 ± 0.2
21,I15Y,0.116 ± 0.15
22,I65L,-0.069 ± 0.12
23,V54L,-0.684 ± 0.21
24,L42S,-0.69 ± 0.14

row,Variant,abundance fitness
1,R21F,-0.17 ± 0.11
2,R21T,0.009 ± 0.075
3,N27A,-0.754 ± 0.17
4,I41C,-0.062 ± 0.061
5,Q18P,-0.93 ± 0.23
6,V7S,-0.866 ± 0.11
7,G17M,-1.07 ± 0.27
8,L46M,0.05 ± 0.21
9,L42A,-0.721 ± 0.1
10,E40P,-0.794 ± 0.14
11,A23D,0.211 ± 0.063
12,S1E,0.194 ± 0.081
13,Q63C,-0.129 ± 0.066
14,G17K,-0.365 ± 0.099
15,P50V,-0.772 ± 0.085
16,L42P,-0.33 ± 0.1
17,Y68H,-0.093 ± 0.092
18,W26Q,-0.879 ± 0.29
19,S67A,0.046 ± 0.072
20,F24M,-0.71 ± 0.11
21,Q64F,-0.584 ± 0.082
22,L32D,0.181 ± 0.05
23,I41Y,-0.057 ± 0.076
24,K31D,0.018 ± 0.17

row,Variant,abundance fitness
1,S67Y,-0.179 ± 0.12
2,D16A,-0.161 ± 0.035
3,I9N,-0.742 ± 0.25
4,A56D,-0.552 ± 0.11
5,P50Y,-0.714 ± 0.15
6,F24K,-0.941 ± 0.16
7,W26M,-0.566 ± 0.33
8,D47K,0.093 ± 0.063
9,D16N,-0.312 ± 0.11
10,L32V,0.068 ± 0.031
11,W26A,-1 ± 0.28
12,F38C,-0.675 ± 0.24
13,P55T,0.479 ± 0.38
14,Q63T,-0.043 ± 0.055
15,P3V,-0.146 ± 0.045
16,F38R,0.11 ± 0.14
17,R62T,-0.3 ± 0.053
18,T34E,-0.388 ± 0.49
19,P3R,0.161 ± 0.038
20,D44E,0.309 ± 0.22
21,F38L,-0.284 ± 0.17
22,E66A,0.096 ± 0.049
23,I57G,-0.781 ± 0.1
24,A56G,-0.523 ± 0.049

row,Variant,abundance fitness
1,D22N,0.005 ± 0.25
2,A23L,-0.387 ± 0.15
3,C43G,-0.739 ± 0.12
4,A23V,0.116 ± 0.054
5,L32M,0.085 ± 0.046
6,P50M,-1.03 ± 0.43
7,L32N,0.207 ± 0.1
8,R21P,-0.357 ± 0.14
9,Q64R,-0.709 ± 0.061
10,R10V,-0.024 ± 0.079
11,A23S,0.089 ± 0.064
12,I65P,-0.689 ± 0.26
13,F24N,-0.964 ± 0.2
14,F24W,-0.293 ± 0.063
15,E66M,-0.215 ± 0.12
16,I65T,-0.141 ± 0.11
17,D12V,-0.646 ± 0.41
18,V5E,-0.103 ± 0.15
19,I15F,-0.282 ± 0.19
20,N27W,-0.909 ± 0.25
21,L46V,-0.746 ± 0.12
22,T52R,-0.21 ± 0.057
23,I61D,-0.827 ± 0.29
